The record followed here is patent US20060153834A1.

The target of assay [1] is 14C-HIgG (human). The assay can be described thus: secondary screening, batch, HIgG competitive (spiked in MEM).
The target of assay [2] is 14C-HIgG (human). In words: secondary screening, batch, HIgG non-competitive (PBS), Micro-BCA.
Assay [3] concerns the target 14C-Fc fragment of HIgG (human). In words: secondary screening, batch, Fc fragment non-competitive (PBS).
The target is the same in assay [4]. The assay can be described thus: secondary screening, batch, Fc fragment competitive (spiked in MEM).
The target in assay [5] is 14C-HIgG (human). The assay can be described thus: second round of secondary screening, batch, competitive (MEM), 14C counting.
The target of assay [6] is 14C-HIgG (human). In words: second round of secondary screening, batch, non-competitive (PBS).
For assay [7], the target named is Human IgG (HIgG) (human). In words: batch adsorption isotherm, PBS pH 7.4, peptide resin 0.1 meq/g, direct Langmuir fit.
The target in assay [8] is Human IgG (HIgG) (human). In words: batch adsorption isotherm, PBS pH 7.4, peptide resin 0.1 meq/g, double reciprocal curve.
In assay [9] the target is Human IgG (HIgG) (human). The assay can be described thus: ratio of ligand to protein at maximum capacity, Ac-HWRGWV resin at 0.080 mmol/g.
For assay [10], the target named is Human IgG (HIgG) (human). In words: batch adsorption isotherm, PBS pH 7.4, Ac-HWRGWV resin at 0.080 mmol/g, Langmuir fit.
Assay [11] has as its target Human IgG (HIgG) (human). The assay can be described thus: batch adsorption isotherm, PBS pH 7.4, HWRGWV resin at 0.040 mmol/g, Langmuir fit.
The target of assay [12] is Human IgG (HIgG) (human). In words: batch adsorption isotherm, PBS pH 7.4, HWRGWV resin at 0.10 mmol/g, Langmuir fit.
For assay [13], the target named is Human IgG (HIgG) (human). In words: ratio of ligand to protein at maximum capacity, HWRGWV resin at 0.55 mmol/g.
For assay [14], the target named is Human IgG (HIgG) (human). In words: ratio of ligand to protein at maximum capacity, HWRGWV resin at 0.040 mmol/g.
For assay [15], the target named is Human IgG (HIgG) (human). The assay can be described thus: batch adsorption isotherm, PBS pH 7.4, HWRGWV resin at 0.22 mmol/g, Langmuir fit.
Assay [16] has as its target Human IgG (HIgG) (human). The assay can be described thus: batch adsorption isotherm, PBS pH 7.4, HWRGWV resin at 0.022 mmol/g, Langmuir fit.
In assay [17] the target is Human IgG (HIgG) (human). In words: ratio of ligand to protein at maximum capacity, HWRGWV resin at 0.22 mmol/g.
The target in assay [18] is Human IgG (HIgG) (human). The assay can be described thus: ratio of ligand to protein at maximum capacity, HWRGWV resin at 0.10 mmol/g.
Assay [19] has as its target Human IgG (HIgG) (human). In words: batch adsorption isotherm, PBS pH 7.4, HWRGWV resin at 0.080 mmol/g, Langmuir fit.
Assay [20] has as its target Human IgG (HIgG) (human). The assay can be described thus: ratio of ligand to protein at maximum capacity, HWRGWV resin at 0.022 mmol/g.
Assay [21] concerns the target Human IgG (HIgG) (human). The assay can be described thus: batch adsorption isotherm, PBS pH 7.4, HWRGWV resin at 0.55 mmol/g, Langmuir fit.
For assay [22], the target named is Human IgG (HIgG) (human). In words: ratio of ligand to protein at maximum capacity, HWRGWV resin at 0.080 mmol/g.

No end group written: not given here.

Regarding HRPKIF (peptide), the Bound % in [1] came to 4.51%; in [2], 11.2%; in [3], 21.5%; in [4] it was 24.5%.

B1: HWIDPL (peptide)
peptide: HWIDPLA-{Toyopearl AF‑Amino‑650 resin}
In the case of B1, in assay [5], the Bound stood at 19.9% and the Unbound came out at 80.1%. In [6], the Bound is 9.03% and the Unbound turned out to be 91%.

B2: HPWYVT (peptide)
peptide: HPWYVTA-{Toyopearl AF‑Amino‑650 resin}
In assay [5], B2 showed a Bound of 27% and an Unbound of 73%.

B3: HANGFL (peptide)
peptide: HANGFLA-{Toyopearl AF‑Amino‑650 resin}
With B3, the Bound % worked out at 5.58% in [1], 10.5% in assay [2], 10.2% in [3] and 25.6% in [4].

B4: HVHYYW (peptide)
peptide: HVHYYWA-{Toyopearl AF‑Amino‑650 resin}
For the molecule B4, in assay [5], the Bound turned out to be 43.3% and the Unbound worked out at 56.7%. In assay [6], this molecule registered a Bound of 55.5% and an Unbound of 44.5%. Also, in [7], the dissociation constant Kd is 20.3 µM and the qm (maximum capacity) was 129 mg/g.

B5: KLQWVH (peptide)
peptide: KLQWVHA-{Toyopearl AF‑Amino‑650 resin}
On to B5, for which, in assay [5], the Bound came out at 12.2% and the Unbound was 87.8%.

B6: HWGPTK (peptide)
peptide: HWGPTKA-{Toyopearl AF‑Amino‑650 resin}
In assay [5], B6 came in with a Bound of 19.9% and an Unbound of 80.1%. In addition, in assay [6], the Bound turned out to be 14.4% and the Unbound is 85.6%.

B7: HFDKGF (peptide)
peptide: HFDKGFA-{Toyopearl AF‑Amino‑650 resin}
Consider B7, for which the Bound % in [1] was 6.01%; in [2], 10.7%; in assay [3], 12.9%; in assay [4], 4.28%.

B8: HYGLGW (peptide)
peptide: HYGLGWA-{Toyopearl AF‑Amino‑650 resin}
Take B8: the Bound % in assay [1] amounted to 14.5%; in assay [2], 17.9%; in assay [3], 19.8%; in assay [4], 4.91%.

B9: HFRRHL (peptide)
peptide: HFRRHLA-{Toyopearl AF‑Amino‑650 resin}
In [5], B9 yielded a Bound of 40.9% and an Unbound of 59.1%. In [7], the Kd was 26.4 µM and the qm (maximum capacity) is 158 mg/g.

B10: HYIDAK (peptide)
peptide: HYIDAKA-{Toyopearl AF‑Amino‑650 resin}
Take B10: in assay [5], the Bound amounted to 8.64% and the Unbound was 91.4%.

B11: YYWLHH (peptide)
peptide: YYWLHHA-{Toyopearl AF‑Amino‑650 resin}
As to B11, the Bound % is 41.9% in assay [1], 91.3% in [2], 40.4% in assay [3] and 8.85% in [4]. Also, the values for the Kd in [8] and in [7] were 215 nM and 0.297 µM, respectively. Further, the qm (maximum capacity) in [8] is 95.1 mg/g; in assay [7] it was 113 mg/g.

B12: WHWRKR (peptide)
peptide: WHWRKRA-{Toyopearl AF‑Amino‑650 resin}
As for B12, the Bound % in assay [1] was 10.9%; in [2] it was 66.2%; in assay [3], 88.2%; in assay [4], 16.5%. The Kd was 2470 nM in assay [8] and 1.39 µM in assay [7]. Moreover, the results for the qm (maximum capacity) in [8] and in assay [7] were 81.9 mg/g and 62.4 mg/g, respectively.

B13: KRGFYY (peptide)
peptide: KRGFYYA-{Toyopearl AF‑Amino‑650 resin}
In assay [5], B13 had a Bound of 17.3% and an Unbound of 82.7%.

B14: HEILYW (peptide)
peptide: HEILYWA-{Toyopearl AF‑Amino‑650 resin}
In the case of B14, the Bound % is 5.5% in assay [1], 9.16% in assay [2], 18% in assay [3] and 3.2% in [4].

B15: HIWA (peptide)
peptide: HIWA-{Toyopearl AF‑Amino‑650 resin}
For the molecule B15, the figures for the Bound in assay [5] and in assay [6] were 12.9% and 7.9%, respectively. Further, the Unbound in assay [5] amounted to 87.1%; in assay [6], 92.1%.

B16: HYFKFD (peptide)
peptide: HYFKFDA-{Toyopearl AF‑Amino‑650 resin}
Turning to B16, in [5], the Bound amounted to 43.3% and the Unbound amounted to 56.7%. In [6], this molecule yielded a Bound of 69.3% and an Unbound of 30.7%. In [7], the Kd was found to be 11.4 µM and the qm (maximum capacity) stood at 127 mg/g.

B17: HDVFHT (peptide)
peptide: HDVFHTA-{Toyopearl AF‑Amino‑650 resin}
On to B17, for which, in assay [5], the Bound came out at 8.55% and the Unbound amounted to 91.5%.

B18: HLKWYA (peptide)
peptide: HLKWYAA-{Toyopearl AF‑Amino‑650 resin}
Take B18: in [5], the Bound was 23.5% and the Unbound came out at 76.5%.

B19: KGEA (peptide)
peptide: KGEA-{Toyopearl AF‑Amino‑650 resin}
On to B19, for which the Bound in assay [5] is 7.34%; in assay [6], 6.08%. Further, the Unbound in assay [5] turned out to be 92.7%; in assay [6], 93.9%.

B20: HIQLDG (peptide)
peptide: HIQLDGA-{Toyopearl AF‑Amino‑650 resin}
In [5], B20 registered a Bound of 10% and an Unbound of 90%.

B21: Ac-HWRGWV (peptide)
peptide: Ac-HWRGWVA-{Toyopearl AF‑Amino‑650 resin}
B21: in assay [9], the peptide/protein, mol/mol is 92 mol/mol. For the same molecule, in assay [10], the equilibrium dissociation constant (Kd) came out at 3.8 µM and the qm (maximum capacity) stood at 131 mg/g.

B22: HVWQLK (peptide)
peptide: HVWQLKA-{Toyopearl AF‑Amino‑650 resin}
Turning to B22, in assay [5], the Bound turned out to be 15.1% and the Unbound was determined as 85%.

B23: HWRGWV (peptide)
peptide: HWRGWVA-{Toyopearl AF‑Amino‑650 resin}
Take B23: the dissociation constant (Kd) in [11] was 20.3 µM; in assay [12] it was 10.4 µM; in [15], 2580 nM; in [16] it was 30 µM; in assay [19], 7.25 µM; in assay [21], 947 nM. For the same molecule, the Kd in assay [8] came out at 2800 nM; in assay [7], 1.33 µM. The qm (maximum capacity) in assay [11] was determined as 148 mg/g; in [12] it was 134 mg/g; in [15], 137 mg/g; in [16] it was 158 mg/g; in assay [19], 132 mg/g; in assay [21], 138 mg/g. Also, the qm (maximum capacity) came out at 54.8 mg/g in assay [8] and 50 mg/g in assay [7]. The Bound % in [1] worked out at 24.4%; in assay [2], 62.2%; in assay [3] it was 82.5%; in [4], 8.13%. The peptide/protein, mol/mol in assay [13] worked out at 600 mol/mol; in assay [14], 41 mol/mol; in assay [17] it was 241 mol/mol; in assay [18], 112 mol/mol; in assay [20], 21 mol/mol; in [22], 91 mol/mol.
